Patent US20250145977A1 (THERIPION, published 2025)

T1: Human CD40 ligand (BioLegend) (human, UniProt P29965 113-261, limits assumed)
T1 construct: Coated on the ELISA plate at 2 ug/ml; also called CD154; gp39
T1 sequence (looked up): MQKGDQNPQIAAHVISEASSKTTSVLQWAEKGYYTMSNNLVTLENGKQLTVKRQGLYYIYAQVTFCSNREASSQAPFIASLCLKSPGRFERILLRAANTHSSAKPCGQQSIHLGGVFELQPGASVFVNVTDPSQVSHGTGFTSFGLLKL


Target: T1, Human CD40 ligand (BioLegend)
Experiment: ELISA on plate-immobilized human CD40 ligand (2 ug/ml coat); serial dilutions of HEK293 transfection supernatant; detection with HRP goat anti-human IgG Fc; x axis is fold dilution, no concentration given

binding result	Binder
binds	[hCD40 EC]-(g4s)4-[SSShinge-P238S Fc] (wild-type CD40-Fc) (Fc fusion, Tested as HEK293 transfection supernatant; also called CD40WT-Fc) EPPTACREKQYLINSQCCSLCQPGQKLVSDCTEFTETECLPCGESEFLDTWNRETHCHQHKYCDPNLGLRVQQKGTSETDTICTCEEGWHCTSEACESCVLHRSCSPGFGVKQIATGVSDTICEPCPVGFFSNVSSAFEKCHPWTSCETKDLVVQQAGTNKTDVVCGPDLSGGGGSGGGGSGGGGSGGGGSTGLEPKSSDKTHTSPPSPAPELLGGSSVFLFPPKPKDTLMISRTPEVTCVVVDVSHEDPEVKFNWYVDGVEVHNAKTKPREEQYNSTYRVVSVLTVLHQDWLNGKEYKCKVSNKALPASIEKTISKAKGQPREPQVYTLPPSRDELTKNQVSLTCLVKGFYPSDIAVEWESNGQPENNYKTTPPVLDSDGSFFLYSKLTVDKSRWQQGNVFSCSVMHEALHNHYTQKSLSLSPGK
binds	hVK3LP-[hCD40EC E64Y-K81T-P85Y]-(g4s)4-[SSShinge-P238S Fc]-NGS-[PON1 Q192K] (Fc fusion, Tested as unpurified HEK293 transfection supernatant; also called CD40TM-Fc-P1-K; CD40-Fc-PON1 fusion protein) EPPTACREKQYLINSQCCSLCQPGQKLVSDCTEFTETECLPCGYSEFLDTWNRETHCHQHTYCDYNLGLRVQQKGTSETDTICTCEEGWHCTSEACESCVLHRSCSPGFGVKQIATGVSDTICEPCPVGFFSNVSSAFEKCHPWTSCETKDLVVQQAGTNKTDVVCGPDLSGGGGSGGGGSGGGGSGGGGSTGLEPKSSDKTHTSPPSPAPELLGGSSVFLFPPKPKDTLMISRTPEVTCVVVDVSHEDPEVKFNWYVDGVEVHNAKTKPREEQYNSTYRVVSVLTVLHQDWLNGKEYKCKVSNKALPASIEKTISKAKGQPREPQVYTLPPSRDELTKNQVSLTCLVKGFYPSDIAVEWESNGQPENNYKTTPPVLDSDGSFFLYSKLTVDKSRWQQGNVFSCSVMHEALHNHYTQKSLSLSPGKVDGASSPVNVSSPSVQDILFRNHQSSYQTRLNALREVQPVELPNCNLVKGIETGSEDLEILPNGLAFISSGLKYPGIKSFNPNSPGKILLMDLNEEDPTVLELGITGSKFDVSSFNPHGISTFTDEDNAMYLLVVNHPDAKSTVELFKFQEEEKSLLHLKTIRHKLLPNLNDIVAVGPEHFYGTNDHYFLDPYLKSWEMYLGLAWSYVVYYSPSEVRVVAEGFDFANGINISPDGKYVYIAELLAHKIHVYEKHANWTLTPLKSLDFNTLVDNISVDPETGDLWVGCHPNGMKIFFYDSENPPASEVLRIQNILTEEPKVTQVYAENGTVLQGSTVASVYKGKLLIGTVFHKALYCEL
